Measurements reported in publication PMC4513130, “Neuronal Calcium Sensor-1 Binds the D2 Dopamine Receptor and G-protein-coupled Receptor Kinase 1 (GRK1) Peptides Using Different Modes of Interactions*” (The Journal of Biological Chemistry, 2015).

Experiments:
[1] = target: T1, Rattus norvegicus neuronal calcium sensor-1 (NCS-1), full-length, Ca2+-bound (Rattus norvegicus, UniProt P62168 1-190); test: ITC; 1 mM Ca2+/NCS-1 in the syringe titrated into 100 uM D2R peptide in the cell, 25 °C, 50 mM Tris-HCl, 50 mM NaCl, 5 mM CaCl2, pH 7.5; fitted to a sequential model and to a two-site nonsequential model with stoichiometry fixed at 1:2 NCS-1:peptide; settings: both partners purified
T1 construct: Neuronal calcium sensor-1, Rattus norvegicus, Swiss-Prot P62168, full length (residues 1-190); also called Ca2+/NCS-1; rat NCS-1

[2] = target: T1, Rattus norvegicus neuronal calcium …; test: crystal structure; NCS-1 (1 mM) with 2-fold excess of GRK1 peptide; 0.12 M alcohols, 0.1 M HEPES/MOPS pH 7.5, 30% PEGMME 550 and PEG 20000, 20 °C; 2.30 Å; settings: both partners purified

Row | Binder | Kd [1] [µM] | binding result [2]
1 | NIEFRKAFLKILHSR (terminal Arg added to improve solubility; also called D2B (copy in the N-lobe site); D2C (copy in the C-lobe site); source: synthetic peptide, bought: GenicBio, China (>95% pure)) [D2 receptor peptide (D2R peptide)] | 40 ± 6 | 
2 | MDFGSLETVVANSAFIAARGSFDGS (also called RK25; source: synthetic peptide, bought: GenicBio, China (>95% pure)) [GRK1 peptide (N terminus of G-protein-coupled receptor kinase 1, residues 1-25)] |  | binds
